Experimental data as given in patent US20230012273A1 (Boehringer Ingelheim, published 2023).

T1: cynoSIRPα (EGM_02252), Extracellular Domain + His-Tag (cynomolgus monkey)
T1 construct: also called CySIRPα EGM_02252; not shown: His-Tag
T1 chain: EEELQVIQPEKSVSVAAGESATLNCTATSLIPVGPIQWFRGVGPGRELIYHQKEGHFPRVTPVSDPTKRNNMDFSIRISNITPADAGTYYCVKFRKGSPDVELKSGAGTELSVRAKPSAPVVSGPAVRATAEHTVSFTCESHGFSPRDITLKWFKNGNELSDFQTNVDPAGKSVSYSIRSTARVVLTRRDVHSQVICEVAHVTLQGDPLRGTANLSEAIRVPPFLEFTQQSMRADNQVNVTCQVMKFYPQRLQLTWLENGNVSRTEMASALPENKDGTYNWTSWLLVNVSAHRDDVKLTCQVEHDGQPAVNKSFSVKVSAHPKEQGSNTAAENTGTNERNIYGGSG

T2: cynoSIRPα (NP_001271679), Extracellular Domain + His-Tag (cynomolgus monkey)
T2 construct: also called CySIRPα NP_001271679; not shown: His-Tag
T2 chain: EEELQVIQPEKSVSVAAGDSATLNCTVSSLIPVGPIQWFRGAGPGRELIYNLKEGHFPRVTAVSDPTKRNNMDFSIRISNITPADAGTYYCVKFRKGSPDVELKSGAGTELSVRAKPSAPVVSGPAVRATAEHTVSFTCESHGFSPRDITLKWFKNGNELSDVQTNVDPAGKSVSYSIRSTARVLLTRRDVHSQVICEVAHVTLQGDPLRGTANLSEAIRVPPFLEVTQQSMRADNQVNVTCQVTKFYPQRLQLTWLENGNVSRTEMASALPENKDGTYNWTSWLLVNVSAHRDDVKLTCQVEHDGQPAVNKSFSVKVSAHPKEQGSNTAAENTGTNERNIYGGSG

T3: cynoSIRPα (XP_015313155), Extracellular Domain + His-Tag (cynomolgus monkey)
T3 construct: also called CySIRPα XP_015313155; not shown: His-Tag
T3 chain: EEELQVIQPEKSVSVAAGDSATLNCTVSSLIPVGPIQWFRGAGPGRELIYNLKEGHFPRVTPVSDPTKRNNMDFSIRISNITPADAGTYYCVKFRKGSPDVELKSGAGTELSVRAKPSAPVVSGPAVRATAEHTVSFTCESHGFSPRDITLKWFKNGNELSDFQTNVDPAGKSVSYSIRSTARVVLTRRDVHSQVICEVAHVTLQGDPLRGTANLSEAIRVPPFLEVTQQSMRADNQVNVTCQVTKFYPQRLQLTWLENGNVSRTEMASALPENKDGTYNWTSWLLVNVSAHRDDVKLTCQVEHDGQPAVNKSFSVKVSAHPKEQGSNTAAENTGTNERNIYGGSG


Assays:
[1] = target: T1, cynoSIRPα (EGM_02252), Extracellular …; assay: SPR, antibody captured on Protein A/G, ECD-His analyte, steady-state fit
Method: (§1) The binding kinetics of anti-SIRPα antibodies to various SIRPα analytes are determined by surface plasmon resonance (SPR) using a Biacore 8K+(Cytiva). 1×HBS-EP+(Cytiva) is used as running buffer and for all the dilutions unless stated otherwise. The Series S CM5 sensorchip is activated with a 1:1 mixture of 0.1 M NHS (N-hydroxysuccinimide) and 0.4 M EDC (1-Ethyl-3-(3-dimethylaminopropyl) carbodiimide hydrochloride) for 420 seconds at a flow rate of 10 μl/min and immobilized with Protein A/G (Thermo Scientific, 10 μg/ml in 10 mM acetate pH 4.5) for 420 seconds at a flowrate of 10 μl/min resulting in approximately 3000 RU of Protein A/G on the surface. The sensorchip is then deactivated with 1 M ethanolamine HCl pH 8.5 for 420 seconds at a flowrate of 10 μl/min.
(§2) Antibodies (approximately 1 ug/ml) are captured on the Protein A/G surface for 60 seconds at a flowrate of 10 μl/min resulting in capture levels of approximately 240 RU. Dilutions of each SIRP protein (Extracellular Domain+His-Tag, with the concentrations as indicated) are injected as analytes over the captured antibody for 300 seconds of association at a flowrate of 30 μl/min, followed by a dissociation for 600 seconds.
(§3) The above procedures are used to measure binding properties of antibodies of the present disclosure. For each analyte used, the highest concentration was as indicated in Example 3 (see Table 36).

[2] = target: T2, cynoSIRPα (NP_001271679), Extracellular …; assay: as above
Method: as §1, §2, §3

[3] = target: T3, cynoSIRPα (XP_015313155), Extracellular …; assay: as above
Method: as §1, §2, §3

[4] = target: T4, Human SIRPαV2 (CAA71403.1), Extracellular Domain + His-Tag (human, UniProt P78324 31-373); assay: SPR, antibody captured on Protein A/G, ECD-His analyte, 1:1 fit
T4 construct: also called huSIRPαV2; hSIRPαV2; not shown: His-Tag
Procedure, shortened: (§4)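 Analyte was His-tagged SIRPα extracellular domain in dilution series, associating 300 s and dissociating 600 s at 30 μl/min. Ligand was antibody captured (~240 RU) on immobilized Protein A/G (~3000 RU). Running buffer HBS-EP+.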

[5] = target: T5, Human SIRPαV1 (NP_542970.1), Extracellular Domain + His-Tag (human, UniProt P78324 31-373); assay: as above
T5 construct: also called huSIRPαV1; hSIRPαV1; not shown: His-Tag
Procedure, shortened: as §4

T4 sequence (P78324 other isoform, or with tags, fused parts or gaps): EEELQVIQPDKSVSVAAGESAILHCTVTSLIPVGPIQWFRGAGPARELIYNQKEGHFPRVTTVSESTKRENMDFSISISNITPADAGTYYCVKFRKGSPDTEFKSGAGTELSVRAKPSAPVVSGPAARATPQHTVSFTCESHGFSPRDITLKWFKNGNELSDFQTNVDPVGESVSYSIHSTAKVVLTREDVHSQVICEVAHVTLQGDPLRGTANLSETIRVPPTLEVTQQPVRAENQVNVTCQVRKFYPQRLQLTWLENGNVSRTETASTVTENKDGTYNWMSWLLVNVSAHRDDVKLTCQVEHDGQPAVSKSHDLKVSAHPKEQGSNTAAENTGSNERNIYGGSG
T5 sequence (P78324 other isoform, or with tags, fused parts or gaps): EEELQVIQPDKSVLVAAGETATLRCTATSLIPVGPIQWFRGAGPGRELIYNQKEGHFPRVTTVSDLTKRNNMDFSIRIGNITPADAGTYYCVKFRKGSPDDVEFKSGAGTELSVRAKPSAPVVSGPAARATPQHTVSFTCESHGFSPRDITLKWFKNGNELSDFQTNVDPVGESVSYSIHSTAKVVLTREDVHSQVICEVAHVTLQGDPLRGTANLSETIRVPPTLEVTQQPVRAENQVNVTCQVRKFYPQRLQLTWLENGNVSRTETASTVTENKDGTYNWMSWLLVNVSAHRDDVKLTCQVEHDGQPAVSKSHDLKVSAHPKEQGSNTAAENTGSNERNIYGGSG

Row | Kd [1] [nM] | Kd [2] [nM] | Kd [3] [nM] | Kd [4] [nM] | koff [4] [s⁻¹] | kon [4] [M⁻¹ s⁻¹] | Kd [5] [nM] | koff [5] [s⁻¹] | kon [5] [M⁻¹ s⁻¹] | Binder
1 | 588 | 741 | 466 | 20.4 | 0.019 | 933000 | 9.38 | 0.00672 | 716000 | Antibody A7 (antibody, human IgG1, kappa, L234A L235A, V domains shown) VH: EVQLVESGGGLVQPGGSLRLSCAASGFTLSSYDMHWVRQATGKGLEWVSAIGTAGDTYYTGSVKGRFTISRENAKNSLYLQMNSLRAGDTAVYYCVRGGVWDDAFDIWGQGTMVTVSS VL: DIQMTQSPSSLSASVGDRVTITCRASQGINNYAAWFQQKPGKAPKSLIYTASSLHSGVPSKFSGSGSGTDFTLTISSLQPEDFATYYCQQYVSYPYTFGQGTKLEIKR
2 | 520 | 639 | 415 | 18.8 | 0.0162 | 859000 | 8.53 | 0.00604 | 708000 | Antibody A8 (antibody, human IgG1, kappa, L234A L235A, V domains shown) VH: EVQLVESGGGLVQPGGSLRLSCAASGFTLSSYDMHWVRQAPGKGLEWVSAIGTAGDTYYTGSVKGRFTISRENAKNSLYLQMNSLRAGDTAVYYCVRGGVWDDAFDIWGQGTMVTVSS VL: DIQMTQSPSSLSASVGDRVTITCRASQGINNYAAWFQQKPGKAPKSLIYTASSLHSGVPSKFSGSGSGTDFTLTISSLQPEDFATYYCQQYVSYPYTFGQGTKLEIKR
3 | 282 | 388 | 203 | – | – | – | – | – | – | Antibody A10 (antibody, human IgG1, kappa, L234A L235A) heavy: not shown light: DIQMTQSPSSLSASVGDRVTITCRASQDINNYLAWFQQKPGKAPKSLIYTASSLHSGVPSKFSGSGSGTDFTLTISSLQPEDFATYYCQQYVSYPYTFGQGTKLEIKRTVAAPSVFIFPPSDEQLKSGTASVVCLLNNFYPREAKVQWKVDNALQSGNSQESVTEQDSKDSTYSLSSTLTLSKADYEKHKVYACEVTHQGLSSPVTKSFNRGEC
4 | 298 | 410 | 204 | – | – | – | – | – | – | Antibody A11 (antibody, human IgG4 S228P, kappa) heavy: not shown light: DIQMTQSPSSLSASVGDRVTITCRASQDINNYLAWFQQKPGKAPKSLIYTASSLHSGVPSKFSGSGSGTDFTLTISSLQPEDFATYYCQQYVSYPYTFGQGTKLEIKRTVAAPSVFIFPPSDEQLKSGTASVVCLLNNFYPREAKVQWKVDNALQSGNSQESVTEQDSKDSTYSLSSTLTLSKADYEKHKVYACEVTHQGLSSPVTKSFNRGEC

The next lines start with the binder.

Row | Binder | Kd [1] [nM] | Kd [2] [nM] | Kd [3] [nM] | Kd [4] [nM] | koff [4] [s⁻¹] | kon [4] [M⁻¹ s⁻¹] | Kd [5] [nM] | koff [5] [s⁻¹] | kon [5] [M⁻¹ s⁻¹]
5 | Antibody A1 (antibody, human IgG1, kappa, L234A L235A, V domains shown) VH: EVQLVESGGGLVQPGGSLRLSCAASGFTLSSYDMHWVRQAPGKGLEWVSAIGTAGDTYYTGSVKGRFTISRENAKNSLYLQMNSLRADDTAVYYCVRGGVWDDAFDIWGQGTMVTVSS VL: DIQMTQSPSSLSASVGDRVTITCRASQGINNYAAWFQQKPGKAPKSLIYTASSLHSGVPSKFSGSGSGTDFTLTISSLQPEDFATYYCQQYVSYPYTFGQGTKLEIKR | 523 | 780 | 427 | 18.6 | 0.0162 | 869000 | 8.6 | 0.00625 | 727000
6 | Antibody A3 (antibody, human IgG1, kappa, L234A L235A, V domains shown) VH: EVQLVESGGGLVQPGGSLRLSCAASGFTLSSYDMHWVRQATGKGLEWVSAIGTAGDTYYTGSVKGRFTISRENAKNSLYLQMNSLRASDTAVYYCVRGGVWDDAFDIWGQGTMVTVSS VL: DIQMTQSPSSLSASVGDRVTITCRASQGINNYAAWFQQKPGKAPKSLIYTASSLHSGVPSKFSGSGSGTDFTLTISSLQPEDFATYYCQQYVSYPYTFGQGTKLEIKR | 560 | 857 | 480 | 19.6 | 0.0178 | 907000 | 9.06 | 0.00661 | 730000
7 | Antibody A4 (antibody, human IgG1, kappa, L234A L235A, V domains shown) VH: EVQLVESGGGLVQPGGSLRLSCAASGFTLSSYDMHWVRQAPGKGLEWVSAIGTAGDTYYTGSVKGRFTISRENAKNSLYLQMNSLRAADTAVYYCVRGGVWDDAFDIWGQGTMVTVSS VL: DIQMTQSPSSLSASVGDRVTITCRASQGINNYAAWFQQKPGKAPKSLIYTASSLHSGVPSKFSGSGSGTDFTLTISSLQPEDFATYYCQQYVSYPYTFGQGTKLEIKR | 488 | 669 | 420 | – | – | – | – | – | –
8 | Antibody A5 (antibody, human IgG1, kappa, L234A L235A, V domains shown) VH: EVQLVESGGGLVQPGGSLRLSCAASGFTLSSYDMHWVRQAPGKGLEWVSAIGTAGDTYYTGSVKGRFTISRENAKNSLYLQMNSLRASDTAVYYCVRGGVWDDAFDIWGQGTMVTVSS VL: DIQMTQSPSSLSASVGDRVTITCRASQGINNYAAWFQQKPGKAPKSLIYTASSLHSGVPSKFSGSGSGTDFTLTISSLQPEDFATYYCQQYVSYPYTFGQGTKLEIKR | 517 | 665 | 415 | 17.8 | 0.0162 | 909000 | 8.75 | 0.00598 | 684000
9 | Antibody A6 (antibody, human IgG1, kappa, L234A L235A, V domains shown) VH: EVQLVESGGGLVQPGGSLRLSCAASGFTLSSYDMHWVRQAPGKGLEWVSAIGTAGDTYYTGSVKGRFTISRENAKNSLYLQMNSLRAEDTAVYYCVRGGVWDDAFDIWGQGTMVTVSS VL: DIQMTQSPSSLSASVGDRVTITCRASQGINNYAAWFQQKPGKAPKSLIYTASSLHSGVPSKFSGSGSGTDFTLTISSLQPEDFATYYCQQYVSYPYTFGQGTKLEIKR | 521 | 684 | 420 | 18.1 | 0.0171 | 947000 | 8.28 | 0.00634 | 766000
10 | Antibody A2 (antibody, human IgG1, kappa, L234A L235A, V domains shown) VH: EVQLVESGGGLVQPGGSLRLSCAASGFTLSSYDMHWVRQATGKGLEWVSAIGTAGDTYYTGSVKGRFTISRENAKNSLYLQMNSLRAADTAVYYCVRGGVWDDAFDIWGQGTMVTVSS VL: DIQMTQSPSSLSASVGDRVTITCRASQGINNYAAWFQQKPGKAPKSLIYTASSLHSGVPSKFSGSGSGTDFTLTISSLQPEDFATYYCQQYVSYPYTFGQGTKLEIKR | 556 | 887 | 469 | 20.9 | 0.0184 | 883000 | 9.39 | 0.00685 | 729000
